Data on 2 molecules can be found in PMC6318265, “Structure of BAI1/ELMO2 complex reveals an action mechanism of adhesion GPCRs via ELMO family scaffolds” (Nature Communications, 2019).

The target in test [1] is T1, ELMO2-RAE (sample of the ITC titration) (human, UniProt Q96JJ3 1-520).
T1 construct: ELMO2, GenBank AF398886.1, aa 1-520 (RBD-ARR-ELMO tandem); Tag removal is described only for crystallography; also called Trx-His6-ELMO2-RAE; source: E. coli BL21 (DE3), purified (Ni-NTA, SEC)
T1 sequence (looked up): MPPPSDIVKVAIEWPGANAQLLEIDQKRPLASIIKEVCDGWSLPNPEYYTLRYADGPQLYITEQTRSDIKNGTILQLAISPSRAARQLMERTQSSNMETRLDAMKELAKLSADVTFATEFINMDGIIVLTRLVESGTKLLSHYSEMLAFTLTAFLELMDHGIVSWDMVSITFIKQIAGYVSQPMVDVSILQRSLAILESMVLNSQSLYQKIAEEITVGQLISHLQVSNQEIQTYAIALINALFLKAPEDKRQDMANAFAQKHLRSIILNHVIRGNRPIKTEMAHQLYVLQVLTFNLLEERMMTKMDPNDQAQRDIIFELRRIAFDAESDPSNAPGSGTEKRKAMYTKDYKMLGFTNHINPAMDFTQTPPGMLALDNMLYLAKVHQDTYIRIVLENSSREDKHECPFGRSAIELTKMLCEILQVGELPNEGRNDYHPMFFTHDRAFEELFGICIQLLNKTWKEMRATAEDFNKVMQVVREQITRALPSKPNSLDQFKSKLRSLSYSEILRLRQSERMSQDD
Nature of the test: ITC; MicroCal iTC200, 25 °C; 50 mM Tris pH 8.0, 100 mM NaCl, 1 mM EDTA, 1 mM DTT; BAI1-EBD (~500 µM) in the syringe, ELMO2-RAE (~40 µM) in the cell. The note with it: both partners purified. (In general: ITC needs no label: the signal is the heat of the interaction.)

The target of test [2] is T2, ELMO2-RAE (tag removed, for crystallography) (human, UniProt Q96JJ3 1-520).
T2 construct: ELMO2, GenBank AF398886.1, aa 1-520 (RBD aa 1-80, ARR aa 81-301, ELMO domain aa 306-513); also called RAE tandem of ELMO2; source: E. coli BL21 (DE3), purified (Ni-NTA, SEC, 3C protease cleavage, SEC)
T2 sequence (looked up): T1 sequence (looked up)
In words: crystal structure; ELMO2-RAE mixed with synthetic BAI1-EBD peptide at 1:2; 0.3 M ammonium fluoride, 18% PEG3,350, 16 °C; 1.7 Å, molecular replacement. The conditions noted are these: both partners purified.

Broadly, the Kd is the free concentration of one partner at which half of the binding sites on the other are occupied at equilibrium, for simple one-to-one binding. The low end stands for higher affinity, the high end for lower affinity. Broadly, the stoichiometry N is a count of units in the complex or per binding partner.

Turning to SLERRKSRYAELDFEKIMHTRKRHQDMFQDLNRKLQ (domain or fragment, mouse, UniProt Q3UHD1-1 1467-1502, looked up, the methods speak of 'BAI1 proteins') [BAI1-EBD (sample of the ITC titration)], in test [1], the Kd is around 3.36 µM and the “stoichiometry N” value was determined as 1.

B1: synthetic BAI1-EBD peptide (peptide, UniProt Q3UHD1-1 1467-1502, looked up)
peptide: SLERRKSRYAELDFEKIMHTRKRHQDMFQDLNRKLQ
notes: aa 1471-1495 are defined in the electron density; source: synthetic peptide (ChinaPeptide Co.,Ltd.)
With B1, in test [2], the “stoichiometry N” value was determined as 1.
